# Reference: the Human Domainome abundance scans (Beltran et al. 2025)
# ± gives the uncertainty stated by the source.
# B1: Homeobox protein cut-like 1, residues 941 to 1008; numbered along this chain, P39880 (parent)
# chain: QEVDTIELTRQVKEKLAKNGICQRIFGEKVLGLSQGSVSDMLSRPKPWSKLTQKGREPFIRMQLWLNG
# Variants of: B1
# Assay: abundance fitness (aPCA) (normalised: wild type 0, dead -1); higher = more abundant; growth selection in yeast, the domain comes from the species named
# Details: Homo sapiens
row,Variant,abundance fitness
1,QEVDTIELTRQVKEKLAKNGICQRIFGEKVLGLSQGSVSDMLSRPKPWSKLTQKGREPFIRMQLWWNG [L66W],-0.35 ± 0.068
2,QEVDTIELTRQVKEKLAKNGICQRIFGEKVLGLSQGSVSDMLSRPKPWSKLTQKGREPFIRMQLWKNG [L66K],-0.63 ± 0.084
3,QEVDTIELTRQVKEKLAKNGICQRIFGEKVLGLSQGSVSDMLSRPKPWSKLTQKGREPFIRMQLWANG [L66A],-0.62 ± 0.089
4,QEVDTIELTRQVKEKLAKNGICQRIFGEKVLGLSQGSVSDMLSRPKPWSKLTQKGREPFIRMQLWVNG [L66V],-0.223 ± 0.061
5,QEVDTIELTRQVKEKLAKNGICQRIFGEKVLGLSQGSVSDMLSRPKPWSKLTQKGREPFIRMQLWGNG [L66G],-0.884 ± 0.09
6,QEVDTIELTRQVKEKLAKNGICQRIFGEKVLGLSQGSVSDMLSRPKPWSKLTQKGREPFIRMQLWQNG [L66Q],-1.17 ± 0.15
7,QEVDTIELTRQVKEKLAKNGICQRIFGEKVLGLSQGSVSDMLSRPKPWSKLTQKGREPFIRMQLWTNG [L66T],-0.8 ± 0.075
8,QEVDTIELTRQVKEKLAKNGICQRIFGEKVLGLSQGSVSDMLSRPKPWSKLTQKGREPFIRMQLWNNG [L66N],-0.568 ± 0.11
9,QEVDTIELTRQVKEKLAKNGICQRIFGEKVLGLSQGSVSDMLSRPKPWSKLTQKGREPFIRMQLWLND [G68D],0.013 ± 0.095
10,QEVDTIELTRQVKEKLAKNGICQRIFGEKVLGLSQGSVSDMLSRPKPWSKLTQKGREPFIRMQLWLNL [G68L],-0.343 ± 0.12
11,QEVDTIELTRQVKEKLAKNGICQRIFGEKVLGLSQGSVSDMLSRPKPWSKLTQKGREPFIRMQLWLNI [G68I],-0.662 ± 0.16
12,QEVDTIELTRQVKEKLAKNGICQRIFGEKVLGLSQGSVSDMLSRPKPWSKLTQKGREPFIRMQLWLNH [G68H],-0.455 ± 0.14
13,QEVDTIELTRQVKEKLAKNGICQRIFGEKVLGLSQGSVSDMLSRPKPWSKLTQKGREPFIRMQLWLNA [G68A],-0.046 ± 0.085
14,QEVDTIELTRQVKEKLAKNGICQRIFGEKVLGLSQGSVSDMLSRPKPWSKLTQKGREPFIRMQLWLNS [G68S],-0.229 ± 0.072
15,QEVDTIELTRQVKEKLAKNGICQRIFGEKVLGLSQGSVSDMLSRPKPWSKLTQKGREPFIRMQLWLNK [G68K],-0.091 ± 0.11
16,QEVDTIELTRQVKEKLAKNGICQRIFGEKVLGLSQGSVSDMLSRPKPWSKLTQKGREPFIRMQLWLNW [G68W],-0.624 ± 0.091
17,QEVDTIELTRQVKEKLAKNGICQRIFGEKVLGLSQGSVSDMLSRPKPWSKLTQKGREPFIRMQLWLNR [G68R],-0.14 ± 0.066
18,QEVDTIELTRQVKEKLAKNGICQRIFGEKVLGLSQGSVSDMLSRPKPWSKLTQKGREPFIRMQLWLNC [G68C],-0.258 ± 0.08
19,QEVDTIELTRQVKEKLAKNGICQRIFGEKVLGLSQGSVSDMLSRPKPWSKLTQKGREPFIRMQLWLNP [G68P],-0.576 ± 0.14
20,QEVDTIELTRQVKEKLAKNGICQRIFGEKVLGLSQGSVSDMLSRPKPWSKLTQKGREPFIRMQLWLNQ [G68Q],-0.212 ± 0.23

row,Variant,abundance fitness
1,QEVDTIELTRQVKEKLAKNGICQRIFGEKVLGLSQGSVSDMLSRPKPWSKLTQKGREPFIRMQLWLNV [G68V],-0.565 ± 0.086
2,QEVDTIELTRQVKEKLAKNGICQRIFGEKVLGLSQGSVSDMLSRPKPWSKLTQKGREPFIRMQLWLNF [G68F],-0.265 ± 0.19
3,QEVDTIELTRQVKEKLAKNGICQRIFGEKVLGLSQGSVSDMLSRPKPWSKLTQKGREPFIRMQLWLNT [G68T],-0.402 ± 0.15
4,QEVDTIELTRQVKEKLAKNGICQRIFGEKVLGLSQGSVSDMLSRPKPWSKLTQKGREPFIRMQLWLVG [N67V],-0.191 ± 0.1
5,QEVDTIELTRQVKEKLAKNGICQRIFGEKVLGLSQGSVSDMLSRPKPWSKLTQKGREPFIRMQLWLLG [N67L],-0.128 ± 0.063
6,QEVDTIELTRQVKEKLAKNGICQRIFGEKVLGLSQGSVSDMLSRPKPWSKLTQKGREPFIRMQLWLPG [N67P],-0.758 ± 0.12
7,QEVDTIELTRQVKEKLAKNGICQRIFGEKVLGLSQGSVSDMLSRPKPWSKLTQKGREPFIRMQLWLRG [N67R],-0.016 ± 0.06
8,QEVDTIELTRQVKEKLAKNGICQRIFGEKVLGLSQGSVSDMLSRPKPWSKLTQKGREPFIRMQLWLYG [N67Y],-0.197 ± 0.085
9,QEVDTIELTRQVKEKLAKNGICQRIFGEKVLGLSQGSVSDMLSRPKPWSKLTQKGREPFIRMQLWLSG [N67S],-0.031 ± 0.061
10,QEVDTIELTRQVKEKLAKNGICQRIFGEKVLGLSQGSVSDMLSRPKPWSKLTQKGREPFIRMQLWLIG [N67I],-0.326 ± 0.095
11,QEVDTIELTRQVKEKLAKNGICQRIFGEKVLGLSQGSVSDMLSRPKPWSKLTQKGREPFIRMQLWLEG [N67E],0.072 ± 0.12
12,QEVDTIELTRQVKEKLAKNGICQRIFGEKVLGLSQGSVSDMLSRPKPWSKLTQKGREPFIRMQLWLQG [N67Q],-0.088 ± 0.1
13,QEVDTIELTRQVKEKLAKNGICQRIFGEKVLGLSQGSVSDMLSRPKPWSKLTQKGREPFIRMQLWLKG [N67K],0.045 ± 0.068
14,QEVDTIELTRQVKEKLAKNGICQRIFGEKVLGLSQGSVSDMLSRPKPWSKLTQKGREPFIRMQLWLGG [N67G],-0.04 ± 0.098
15,QEVDTIELTRQVKEKLAKNGICQRIFGEKVLGLSQGSVSDMLSRPKPWSKLTQKGREPFIRMQLWLAG [N67A],-0.03 ± 0.085
16,QEVDTIELTRQVKEKLAKNGICQRIFGEKVLGLSQGSVSDMLSRPKPWSKLTQKGREPFIRMQLWLHG [N67H],-0.128 ± 0.092
17,QEVDTIELTRQVKEKLAKNGICQRIFGEKVLGLSQGSVSDMLSRPKPWSKLTQKGREPFIRMQLWLCG [N67C],-0.193 ± 0.092
18,QEVDTIELTRQVKEKLAKNGICQRIFGEKVLGLSQGSVSDMLSRPKPWSKLTQKGREPFIRMQLWLTG [N67T],-0.041 ± 0.07
19,QEVDTIELTRQVKEKLAKNGICQRIFGEKVLGLSQGSVSDMLSRPKPWSKLTQKGREPFIRMQLWLDG [N67D],-0.21 ± 0.11
20,QEVDTIELTRQVKEKLAKNGICQRIFGEKVLGLSQGSVSDMLSRPKPWSKLTQKGREPFIRMQLWLMG [N67M],-0.186 ± 0.12
